Test results as given in paper PMC3154154.

Assays:
[1] = target: L19 IgG control antibody (unmodified, without linker) (human); experiment: SPR; Biacore T100; L19 IgG or modified versions immobilised on a CM5 chip treated with antibody capture kit; soluble Fc receptor fragments as analytes at 1.56 - 50 nM; association and dissociation kinetics used to calculate the dissociation constant
[2] = target: L19 IgG-DnaEN after PTS (trans-spliced with DnaEC peptide without a probe) (human); experiment: as above
[3] = target: L19 IgG-GyrA after EPL (cleaved with Mesna, cysteine as probe) (human); experiment: as above
[4] = target: L19 IgG after EPL (L19 IgG-GyrA cleaved with Mesna and derivatized with cysteine) (human); experiment: SPR; Biacore T100; L19 IgG or modified versions immobilized on a CM5 chip treated with antibody capture kit; soluble Fc receptor fragments 1.56 - 50 nM as analytes; KD calculated from association and dissociation kinetics
[5] = target: L19 IgG after PTS (L19 IgG-DnaEN trans-spliced with DnaEC peptide without a probe) (human); experiment: as above
L19 IgG after PTS (L19 IgG-DnaEN trans-spliced with DnaEC peptide without a probe) (human), sequence (heavy, as listed by the source, chain 1 of 2): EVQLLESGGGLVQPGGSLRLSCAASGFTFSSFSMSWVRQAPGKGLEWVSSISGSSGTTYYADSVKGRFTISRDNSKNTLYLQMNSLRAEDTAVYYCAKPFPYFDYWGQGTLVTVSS
L19 IgG after PTS (L19 IgG-DnaEN trans-spliced with DnaEC peptide without a probe) (human), sequence (light, as listed by the source, chain 2 of 2): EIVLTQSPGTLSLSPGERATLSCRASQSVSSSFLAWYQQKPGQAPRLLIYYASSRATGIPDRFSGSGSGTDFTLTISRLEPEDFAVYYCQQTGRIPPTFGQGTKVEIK

L19 IgG-GyrA after EPL (cleaved with Mesna, cysteine as probe) (human), sequence (heavy, as listed by the source, chain 1 of 2): as the sequence (heavy, as listed by the source, chain 1 of 2) above
L19 IgG-GyrA after EPL (cleaved with Mesna, cysteine as probe) (human), sequence (light, as listed by the source, chain 2 of 2): as the sequence (light, as listed by the source, chain 2 of 2) above
L19 IgG control antibody (unmodified, without linker) (human), sequence (heavy, as listed by the source, chain 1 of 2): as the sequence (heavy, as listed by the source, chain 1 of 2) above
L19 IgG control antibody (unmodified, without linker) (human), sequence (light, as listed by the source, chain 2 of 2): as the sequence (light, as listed by the source, chain 2 of 2) above
L19 IgG-DnaEN after PTS (trans-spliced with DnaEC peptide without a probe) (human), sequence (heavy, as listed by the source, chain 1 of 2): as the sequence (heavy, as listed by the source, chain 1 of 2) above
L19 IgG-DnaEN after PTS (trans-spliced with DnaEC peptide without a probe) (human), sequence (light, as listed by the source, chain 2 of 2): as the sequence (light, as listed by the source, chain 2 of 2) above
L19 IgG after EPL (L19 IgG-GyrA cleaved with Mesna and derivatized with cysteine) (human), sequence (heavy, as listed by the source, chain 1 of 2): as the sequence (heavy, as listed by the source, chain 1 of 2) above
L19 IgG after EPL (L19 IgG-GyrA cleaved with Mesna and derivatized with cysteine) (human), sequence (light, as listed by the source, chain 2 of 2): as the sequence (light, as listed by the source, chain 2 of 2) above

Kd [1] [nM]	koff [1] [s⁻¹]	kon [1] [M⁻¹ s⁻¹]	Kd [2] [nM]	koff [2] [s⁻¹]	kon [2] [M⁻¹ s⁻¹]	Kd [3] [nM]	koff [3] [s⁻¹]	kon [3] [M⁻¹ s⁻¹]	Kd [4] [nM]	Kd [5] [nM]	Substance
0.17	0.000168	1.02e+06	0.21	0.000201	960000	0.13	0.000145	1.11e+06	–	–	Fcγ RI/CD64, soluble Fc receptor fragment (from UniProt P12314 16-292)
–	–	–	–	–	–	–	–	–	60	60	soluble Fc receptor fragment Fcγ RIIIA/CD16a (from UniProt P08637 17-208)
